Laboratory results reported in patent US20130323252A1 (Novartis, published 2013).
Positions of bridges follow the written chain, without caps; N, C: chain ends. No end group written: not given here.

Columns and labels:
[1] = target: TMEM16A-GFP fusion protein on HEK293 stable cells (UniProt Q5XXA6); assay: flow cytometry on HEK293-TMEM16A cells
[2] = target: SP31 (ab64085) Abcam rabbit monoclonal antibody against human TMEM16A; assay: peptide pre-incubation of the antibody, western blot of TMEM16A
[3] = target: T1, linear peptide 44_ECD1-3 (human); assay: peptide microarray, linear peptide, Cy5 anti-rat IgG detection
T1 peptide: VQISRYKDYREPPWS
Protocol: (§1) Both set of peptides were printed on microarray slides in triplicate, incubated with the antibody of interest (12E11) and control antibodies. One is an incubation with an unrelated antibody from the same isotype (rat control IgG2b), the second using only the secondary antibody (anti-rat IgG (H+L) (JIR, 212-175-082) (Label Cy5)) to assess unspecific binding due to the detection antibody. The experiments are performed essentially as described in Maksimov P, et al. 2012, PLoS One 7:e34212. doi:10.1371/journal.pone. 0034212.
(§2) The determination of peptide-antibody binding was performed by RepliTope-analysis where the peptide microarray (triplicate) was incubated with the primary antibody followed by a fluorescently labelled secondary antibody directed against the Fc-part of the primary one. All steps were performed on a TECAN microarray processing station enabling highly reliable and reproducible washing and incubation steps. After performing the incubation steps and subsequent to the final washing steps (to remove the unbound secondary antibodies) the microarrays were dried using a nitrogen stream and scanned in a high resolution microarray scanning system with appropriate wavelength settings. Control incubations were performed with an unrelated antibody having the same isotype to exclude false positive signals.
(§3) The resulting images were analyzed and quantified using spot-recognition software GenePix (Molecular Devices). For each spot, the mean signal intensity was extracted (between 0 and 65535 arbitrary units). For further data evaluation, the MMC2 values were determined. The MMC2 equals the mean value of all three instances on the microarray. Except the coefficient of variation (CV)—standard-deviation divided by the mean value—is larger 0.5, in this case the mean of the two closest values (MC2) is assigned to MMC2.

[4] = target: T2, linear peptide 45_ECD1-3 (human); assay: as above
T2 peptide: SRYKDYREPPWSENK
Protocol: as §1, §2, §3

[5] = target: T3, linear peptide 46_ECD1-3 (human); assay: as above
T3 peptide: KDYREPPWSENKYDI
Protocol: as §1, §2, §3

[6] = target: T4, cyclic peptide 44_ECD1-3 cys (human, disulfide 1-17 (inferred)); assay: peptide microarray, cyclic peptide, Cy5 anti-rat IgG detection
T4 construct: Same 15-mer as linear peptide 44, flanked by cysteines; also called Peptide 44 (cyclic)
T4 peptide: CVQISRYKDYREPPWSC
Protocol: as §1, §2, §3

[7] = target: T5, cyclic peptide 45_ECD1-3 cys (human, disulfide 1-17 (inferred)); assay: as above
T5 construct: Same 15-mer as linear peptide 45, flanked by cysteines; also called Peptide 45 (cyclic)
T5 peptide: CSRYKDYREPPWSENKC
Protocol: as §1, §2, §3

[8] = target: T6, cyclic peptide 46_ECD1-3 cys (human, disulfide 1-17 (inferred)); assay: as above
T6 construct: Same 15-mer as linear peptide 46, flanked by cysteines; also called peptide 46 (cyclic)
T6 peptide: CKDYREPPWSENKYDIC
Protocol: as §1, §2, §3

Sequence of TMEM16A-GFP fusion protein on HEK293 stable cells (Q5XXA6 whole entry, the tested form may be a part): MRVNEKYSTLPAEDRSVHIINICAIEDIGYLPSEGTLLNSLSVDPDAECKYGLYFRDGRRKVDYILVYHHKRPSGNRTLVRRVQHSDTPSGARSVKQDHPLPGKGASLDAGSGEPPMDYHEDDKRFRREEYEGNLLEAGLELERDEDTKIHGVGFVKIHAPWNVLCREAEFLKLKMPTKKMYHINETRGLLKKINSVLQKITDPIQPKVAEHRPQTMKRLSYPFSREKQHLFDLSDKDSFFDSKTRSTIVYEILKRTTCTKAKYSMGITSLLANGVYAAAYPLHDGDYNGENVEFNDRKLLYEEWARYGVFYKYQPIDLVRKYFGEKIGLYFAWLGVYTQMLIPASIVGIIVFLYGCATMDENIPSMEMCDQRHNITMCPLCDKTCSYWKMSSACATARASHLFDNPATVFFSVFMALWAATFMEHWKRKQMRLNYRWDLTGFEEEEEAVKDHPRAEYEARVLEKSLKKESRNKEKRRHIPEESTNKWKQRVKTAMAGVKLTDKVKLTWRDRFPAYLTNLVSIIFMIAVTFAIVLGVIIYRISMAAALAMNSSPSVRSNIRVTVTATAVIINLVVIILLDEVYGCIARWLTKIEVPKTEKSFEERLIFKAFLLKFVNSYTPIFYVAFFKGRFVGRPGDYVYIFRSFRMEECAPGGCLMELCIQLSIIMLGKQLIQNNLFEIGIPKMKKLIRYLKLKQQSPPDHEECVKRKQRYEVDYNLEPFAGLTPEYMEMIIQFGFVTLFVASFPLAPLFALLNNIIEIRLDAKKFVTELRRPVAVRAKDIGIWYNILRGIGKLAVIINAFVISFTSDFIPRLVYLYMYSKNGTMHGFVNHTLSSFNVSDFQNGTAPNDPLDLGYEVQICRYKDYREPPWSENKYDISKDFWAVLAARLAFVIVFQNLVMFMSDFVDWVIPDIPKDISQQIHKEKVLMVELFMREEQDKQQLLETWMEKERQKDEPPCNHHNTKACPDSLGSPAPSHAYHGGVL

## isotype control antibody (control for 12E11 in flow cytometry)
[1]
  median fluorescence intensity: 93

## DHEECVKRKQRYEVDYNLE [blocking Peptide #2]
[2]
  peptide concentration that effectively blocked: 0.01 µg/mL

B1: 12E11 TMEM16A antibody (antibody, V domains shown)
VH: QVQLKESGPGLVQPSQTLTLTCTVSGFSLSNYDMHWVRQSPGKGLDWMGVIWGNGKTQYNSGLTSRLSISRDTSKSQVFLKMNSLQTEDTAIYFCTRSGYYYDGSYYSLFDYWGQGVMVTVSS
VL: DVVLTQTPPTLSATIGQSVSISCRSSQSLLHSNGNTYLNWLLQRPGQPPQLLIYLVSRLESGVPNRFSGSGSGTDFTLKISGVEAEDLGVYYCVQSTHAPAFGGGTKLELK
notes: Rat hybridoma monoclonal made by genetic immunization; The same-isotype control was rat IgG2b, which implies a rat IgG2b constant region
[3]
  Signal intensity after subtraction of control signal (AU): 36800 AU
[4]
  Signal intensity after subtraction of control signal (AU): 27300 AU
[5]
  Signal intensity after subtraction of control signal (AU): 15100 AU
[6]
  Signal intensity after subtraction of control signal (AU): 55900 AU
[7]
  Signal intensity after subtraction of control signal (AU): 56600 AU
[8]
  Signal intensity after subtraction of control signal (AU): 24800 AU
